Patent US20180127500A1 (ANAPTYSBIO, published 2018)

B1: APE5137 (antibody, V domains shown)
VH: EVQLLESGGGLVQPGGSLRLSCAAASGFTFSSYDMSWVRQAPGKGLDWVSTISGGGTYTYYQDSVKGRFTISRDNSKNTLYLQMNSLRAEDTAVYYCASMDYWGQGTTVTVSS
VL: DIQMTQSPSSLSASVGDRVTITCRASQSIRRYLNWYHQKPGKAPKLLIYGASTLQSGVPSRFSGSGSGTDFTLTISSLQPEDFAVYYCQQSHSAPLTFGGGTKVEIKR
notes: also called Lead Antibody; lead anti-TIM-3 antibody
B2: APE5121 (antibody, V domains shown)
VH: EVQVLESGGGLVQPGGSLRLYCVASGFTFSGSYAMSWVRQAPGKGLEWVSAISGSGGSTYYADSVKGRFTISRDNSKNTLYLQMNSLRAEDTAVYYCAKKYYVGPADYWGQGTLVTVSS
VL: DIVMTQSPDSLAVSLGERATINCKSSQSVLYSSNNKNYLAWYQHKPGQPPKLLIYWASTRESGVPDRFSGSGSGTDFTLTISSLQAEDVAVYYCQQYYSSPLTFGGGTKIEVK
notes: also called Back-Up Antibody

Assays:
Human TIM-3 = target: T1, Human TIM-3 (human, UniProt Q8TDQ0 22-200, limits assumed); assay: BIACORE (SPR)
T1 construct: The construct used for BIACORE is not described; also called T Cell Immunoglobulin and Mucin Protein 3; HAVCR2
T1 sequence (looked up): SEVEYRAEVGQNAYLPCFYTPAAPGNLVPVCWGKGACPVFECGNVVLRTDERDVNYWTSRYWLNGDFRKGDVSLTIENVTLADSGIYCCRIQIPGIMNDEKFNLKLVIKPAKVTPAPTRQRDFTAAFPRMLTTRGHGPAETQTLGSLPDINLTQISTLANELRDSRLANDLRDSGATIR

Cyno TIM-3 = target: T2, Cyno TIM-3 (cynomolgus monkey, UniProt A0A2K5U3G7 22-294); assay: BIACORE (SPR)
T2 construct: The construct used for BIACORE is not described; also called cynomolgus monkey TIM-3
T2 sequence: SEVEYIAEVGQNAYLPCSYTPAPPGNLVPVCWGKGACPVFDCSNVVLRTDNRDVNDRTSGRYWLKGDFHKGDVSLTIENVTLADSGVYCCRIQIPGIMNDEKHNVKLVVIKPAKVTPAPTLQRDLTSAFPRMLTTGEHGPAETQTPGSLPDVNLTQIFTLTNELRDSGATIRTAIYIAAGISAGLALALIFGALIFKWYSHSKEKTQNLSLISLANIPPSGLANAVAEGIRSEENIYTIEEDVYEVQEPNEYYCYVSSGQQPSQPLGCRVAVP

Binder | Kd (Human TIM-3) [nM] | Kd (Cyno TIM-3) [nM]
B1 | 0.05 | 0.19
B2 | < 0.05 | 1.5
